Kd data for two molecules are collected here from article PMC2928128.

The target in the experiment is GST-CDH23Δexon68ΔITEL (residues 847-1075). The experiment can be described thus: SPR. A general note: In SPR one partner is held on a chip, and binding of the other changes the refractive index at the surface.

B1: harmonin-a Nter-PDZ1 fragment (residues 1-203) (domain or fragment)
chain: MDRKVAREFRHKVDFLIENDAEKDYLYDVLRMYHQTMDVAVLVGDLKLVINEPNRLPLFDAIRPLIPLKHQVEYDQLTPRRSRKLKEVRLDRLHPEGLGLSVRGGLEFGCGLFISHLIKGGQADSVGLQVGDEIVRINGYSISSCTHEEVINLIRTKKTVSIKVRHIGLIPVKSSPEESLKWQYVDQFVSESGGVRGGLGSPG
In turn, B1 came in with a Kd of 58 nM.

B2: harmonin-a Nter domain (residues 1-79) (domain or fragment)
chain: MDRKVAREFRHKVDFLIENDAEKDYLYDVLRMYHQTMDVAVLVGDLKLVINEPNRLPLFDAIRPLIPLKHQVEYDQLTP
As to B2, the equilibrium dissociation constant (Kd) was over 5000 nM.

For orientation: Kd means the concentration at which binding is half-saturated.
